The source of these data is US20120178124A1, “STEROL SIDE CHAIN-CLEAVING ENZYME PROTEIN AND USE THEREOF” (MITSUBISHI CHEMICAL CORPORATION, priority 2009, published 2012).

Where “and” joins values, the source holds several entries; their conditions need not be identical. Equal entries are not always repeated.

A short description of series [1]: Kinetics analysis of CYP204A1 and CYPSS. Format: biochemical. The settings on record: for Specific activity: pH 7.5, 15° C., 60 minutes; for Km / Vmax: Lineweaver-Burk plot. Here is the method:
Moreover, the activity decrease rate when the substrate concentration is increased from 10 μM to 100 μM can also be obtained by conducting the conversion of 4-cholesten-3-one at a substrate concentration of 0.1 to 500 μM and then examining the relationship between the substrate concentration and the activity of the enzyme protein. Specifically, there is prepared 1 ml of a reaction solution, which comprises […] CYP204A1 or […] CYPSS204A, 96 μg/ml spinach-derived ferredoxin, 0.1 U/ml spinach-derived ferredoxin reductase protein, 3 U/ml glucose dehydrogenase, 60 mM glucose, 2 mM NADH and 2 mM NADPH. Tris-HCl is then added to the reaction mixture to adjust to pH 7.5. 20 μl of 4-cholesten-3-one used as a substrate, dissolved in DMSO to have a final concentration of 0.1, 0.5, 1, 2, 5, 10, 20, 50, 100 or 500 μM, is added to the reaction mixture. The reaction is initiated by addition of NADH and NADPH, and it can be carried out at 200 rpm at 15° C. for 60 minutes.
(§1) To 20 ml of the cell suspension prepared in (2) above, 680 μl of X10 Bug Buster (Novagen), 20 μl of Benzonase (Novagen), and 2 ml of 40 mg/ml lysozyme were added, and the obtained mixture was then shaken at 30° C. for 30 minutes to disintegrate the cells. Thereafter, the reaction solution was centrifuged to obtain the cell-free extract. The obtained, approximately 20 ml of cell-free extract was dialyzed against 1 L of Buffer R (20 mM KPB pH 7.4, 20% glycerol) two times, and the deposited precipitate was then removed by centrifugation. The cell-free extract obtained as a supernatant herein was used in the subsequent experiments.
Using the cell-free extract prepared in (3) above, conversion of 4-cholesten-3-one was carried out at substrate concentration of 0.1 to 500 μM, and the relationship between the substrate concentration and the enzyme protein activity was examined. The reaction solution was prepared, such that 1 ml of the buffer comprised 220 pmol CYP204A1 or 250 pmol CYPSS, 96 μg/ml spinach-derived ferredoxin, 0.1 U/ml spinach-derived ferredoxin reductase protein, 3 U/ml glucose dehydrogenase, 60 mM glucose, 2 mM NADH, and 2 mM NADPH. Tris-HCl was added to the reaction solution so as to adjust it to pH 7.5. 20 μl of 4-cholesten-3-one, which had been dissolved in DMSO to a final concentration of 0.1, 0.5, 1, 2, 5, 10, 20, 50, 100 or 500 μM, was added. The reaction was initiated by addition of NADH and NADPH, and it was carried out at 200 rpm at 15° C. for 60 minutes. Thereafter, 1.5 ml of ethyl acetate was added to the reaction solution to terminate the reaction, and extraction was carried out. Then, extraction was carried out again with 0.75 ml of ethyl acetate. The obtained ethyl acetate phase was solidified using evaporator, and the residue was then dissolved in 200 μl of methanol. Thereafter, progesterone was detected by HPLC analysis. The relationship between the substrate concentration and the enzyme protein activity, and kinetics parameters calculated by production of Lineweaver-Burk plot, is shown in Table 5.

Series [2] can be described thus: Analysis of the optimum pH, conversion of 4-cholesten-3-one by cell-free extract. Format: biochemical. The note with it: for Specific activity: 4-cholesten-3-one to progesterone, 30° C., 14 hours; for optimum pH (pH of highest activity): conversion of 4-cholesten-3-one to progesterone. Here is the method:
as §1
Using the cell-free extract prepared in (3) above, conversion of 4-cholesten-3-one was carried out at various pH values. The reaction solution was prepared, such that 1 ml of Buffer R comprised […] CYP204A1 or […] CYPSS204A, 64 μg/ml spinach-derived ferredoxin, a 0.1 U/ml spinach-derived ferredoxin reductase protein, 3 U/ml glucose dehydrogenase, 60 mM glucose, 50 μg/ml 4-cholesten-3-one, 2 mM NADH, and 2 mM NADPH. Then, 562 μl of 200 mM Buffer having various pH values was added to 1 ml of the reaction solution, so as to adjust the pH of the reaction solution. The reaction was initiated by the addition of NADH and NADPH, and it was carried out at 200 rpm at 30° C. for 14 hours. Thereafter, 1.5 ml of ethyl acetate was added to the reaction solution to terminate the reaction, and extraction was carried out. Then, extraction was carried out again with 0.75 ml of ethyl acetate. The obtained ethyl acetate phase was solidified using evaporator, and the residue was then dissolved in 200.d of methanol. Thereafter, progesterone was detected by HPLC analysis. The enzyme protein activity for conversion of 4-cholesten-3-one to progesterone under various pH conditions is shown in Table 1. The enzyme protein activity was indicated by the amount (g) of progesterone generated per hour per mol of P450.

Setting [3] is: 4-cholesten-3-one concn. 0.1 μM.
Where [4] appears, read: 4-cholesten-3-one concn. 0.5 μM.
Where [5] appears, read: 4-cholesten-3-one concn. 10 μM (reference).
Setting [6] is: 4-cholesten-3-one concn. 100 μM.
The mark [7] stands for this setting: 4-cholesten-3-one concn. 500 μM.

With `CC(C)CCC[C@@H](C)[C@H]1CC[C@H]2[C@@H]3CCC4=CC(=O)CC[C@]4(C)[C@H]3CC[C@]12C` [4-cholesten-3-one], the substrate inhibition result in series [1] (4-cholesten-3-one 0.1 to 500 μM) was “causes substrate inhibition”.

B1: CYP204A1: P450scc from Novosphingobium aromaticivorans ATCC 700278, amino acid sequence SEQ ID NO: 23 (protein)
chain: MARAATAAGNGLPLLDGGVPLLGHLAQFFRDPVSVLKRGYRSKGRLFAMNFMGQRMNVMLGPEHNRFFFEETDKLLSIRESMPFFLKMFSPEFYSFAEMDEYLRQRSIIMPRFKAASMKQYVPVMVEESLNLVERLGEEGEFDLIPTLGPVVMDIAAHSFMGREFHEKLGHEFFELFRDFSGGMEFVLPLWLPTPKMVKSQRAKRKLHAILQSWIDKRRAAPLDPPDFFQTMIETKYPDGRPVPDEIIRHLILLLVWAGHETTAGQVSWALADLLQNPDYQKVLRGEISSLLGGSDGRDLGWEQAVAMEKMDLALRETERLHPVAYMLSRKARADIERDGYVIRKGEFVLLAPSVSHRMEETFRNPDAYDPERFNPANPDAQIESNSLIGFGGGVHRCAGVNFARMEMKVLVAILLQNFDMELMDEVRPIAGASTYWPAQPCRVRYRRRKLDGSEAGADMAALARAAGCPAHT
modifications: Novosphingobium aromaticivorans
In the case of B1, the Specific activity in series [2] (KPB pH 6.2), in series [2] (KPB pH 6.7), in series [2] (KPB pH 7.1), in series [2] (KPB pH 7.4), in series [2] (KPB pH 7.9) and in series [2] (TES pH 6.6) was 0 g/h/mol each time. Further, the Specific activity turned out to be 0 g/h/mol in series [2] (TES pH 6.8); 39 g/h/mol in series [2] (TES pH 7.3); 97 g/h/mol in series [2] (TES pH 7.5); 82 g/h/mol in series [2] (TES pH 8.0); 207 g/h/mol in series [2] (Tris-HCl pH 7.5); 114 g/h/mol in series [2] (Tris-HCl pH 8.2). The Specific activity in series [2] (Tris-HCl pH 8.7) is 0 g/h/mol; in series [1] (setting [3]) it was 2.2 mmol/min/mol; in series [1] (setting [4]), 15.3 mmol/min/mol; in series [1] (4-cholesten-3-one concn. 1 μM), 25.2 mmol/min/mol; in series [1] (4-cholesten-3-one concn. 2 μM) it was 32.2 mmol/min/mol; in series [1] (4-cholesten-3-one concn. 5 μM) it was 36.1 mmol/min/mol. Moreover, the Specific activity in series [1] (4-cholesten-3-one concn. 10 μM) was 43.1 mmol/min/mol; in series [1] (4-cholesten-3-one concn. 20 μM) it was 42.7 mmol/min/mol; in series [1] (4-cholesten-3-one concn. 50 μM), 33.5 mmol/min/mol; in series [1] (setting [6]), 28.7 mmol/min/mol; in series [1] (setting [7]), 20.1 mmol/min/mol. For the same molecule, the “optimum pH (pH of highest activity)” value in series [2] worked out at 7.5. Also, the “Specific activity relative to that at 10 μM” value in series [1] (setting [5]) was determined as 100; in series [1] (setting [6]), 66.6. The Km in series [1] (4-cholesten-3-one) is 1 µM and ~1 µM. Moreover, the Vmax in series [1] (4-cholesten-3-one) came out at 47.4 mmol/min/mol.

B2: Sphingomonas subterranea NBRC16086 P450scc CYPSS204A (CYPSS), wild type, SEQ ID NO: 2 (Novosphingobium subterraneum) (protein)
chain: MASAAAGADGLPLLDGGVPLLGHLAQFFRDPVSVLKRGYRSKGRLFAMNFMGQRMNVMLGPEHNRFFFEETDKLLSIRESMPFFLKMFSPEFYSFAEMDEYLRQRAIIMPRFKAASMKQYVPVMVEESLNLVERLGEEGEFDLIPTLGPVVMDIAAHSFMGREFHEKLGHEFFELFRDFSGGMEFVLPLWLPTPKMVKSQRAKKKLHAILQSWIDKRRASPLDPPDFFQTMIETKYPDGRAVPDEIIRHLILLLVWAGHETTAGQVSWALADLLQNPGYQQVLREEVASLLGGSDGRALGWEQAVAMEKMDLALRETERLHPVAYMLSRKASADIERDGYRIRKGEFVLLAPSVSHRMEETFRNADAYDPERFNPQNPDAQIESNSLIGFGGGVHRCAGVNFARMEMKVLVAILLQNFDMELIDEVRPIAGASTYWPAQPCRVRYKRRKLDGAGGSADVAALAKAAGCPAHA
Consider B2, for which the Specific activity in series [2] (KPB pH 6.2) was determined as 0 g/h/mol; in series [2] (KPB pH 6.7), 19 g/h/mol; in series [2] (KPB pH 7.1), 21 g/h/mol; in series [2] (KPB pH 7.4), 0 g/h/mol; in series [2] (KPB pH 7.9), 0 g/h/mol; in series [2] (TES pH 6.6) it was 0 g/h/mol. The Specific activity in series [2] (TES pH 6.8) was determined as 16 g/h/mol; in series [2] (TES pH 7.3) it was 76 g/h/mol; in series [2] (TES pH 7.5), 165 g/h/mol; in series [2] (TES pH 8.0), 168 g/h/mol; in series [2] (Tris-HCl pH 7.5), 301 g/h/mol; in series [2] (Tris-HCl pH 8.2), 269 g/h/mol. The Specific activity in series [2] (Tris-HCl pH 8.7) amounted to 40 g/h/mol; in series [1] (setting [3]), 1.9 mmol/min/mol; in series [1] (setting [4]), 20.0 mmol/min/mol; in series [1] (4-cholesten-3-one concn. 1 μM), 36.5 mmol/min/mol; in series [1] (4-cholesten-3-one concn. 2 μM), 49.5 mmol/min/mol; in series [1] (4-cholesten-3-one concn. 5 μM), 70.4 mmol/min/mol. Moreover, the Specific activity in series [1] (4-cholesten-3-one concn. 10 μM) came out at 67.2 mmol/min/mol; in series [1] (4-cholesten-3-one concn. 20 μM), 72.4 mmol/min/mol; in series [1] (4-cholesten-3-one concn. 50 μM) it was 71.2 mmol/min/mol; in series [1] (setting [6]), 60.5 mmol/min/mol; in series [1] (setting [7]) it was 33.6 mmol/min/mol. For the same molecule, the “optimum pH (pH of highest activity)” value in series [2] came to 7.5. The “Vmax value compared with that of CYP204A1” value in series [1] (4-cholesten-3-one) was “approximately 1.7 times”. The “Specific activity relative to that at 10 μM” value in series [1] (setting [5]) is 100; in series [1] (setting [6]) it was 90.0. In series [1] (4-cholesten-3-one), the Km is 1.1 µM and ~1 µM. In series [1] (4-cholesten-3-one), the Vmax is 78.7 mmol/min/mol.
